Test results taken from the nanobody polyreactivity screen of Harvey et al. (2022).

assay: yeast display, Sf9 membrane polyspecificity reagent, FACS + sequencing; frameworks hold sequencing errors
In short: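 Nanobodies came from a synthetic yeast display library in Saccharomyces cerevisiae BJ5465, induced with galactose for 36–48 hours and stained for 1 hour at 4 °C with 10% biotinylated, detergent-solubilized Sf9 membrane reagent. Cells were enriched on streptavidin microbeads and then FACS-sorted, with low and high (top ~1%) gates set on anti-HA fluorescence for expression and streptavidin fluorescence for reagent binding. Each polyreactivity label reflects the gate a clone came from. Genes were amplified by colony PCR, sequenced by MiSeq 2 × 250 and filtered by CDR length.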

Row | Sequence | polyreactivity (PSR sort gate)
1 | QVQLVESGGGLVQAGGSLRLSCAASGFTFDIYAMGWYRQAPGKERELVATISFTGDTTSYADSVKGRFTISRHNAKNTVYLQMNSLKPEDTAVYYCAADGSYPLSVGRENLHYAEFDYWGQGTQVTVSS | low polyreactivity
2 | QVQLVESGGGLVQAGGSLRLSCAASGNIFYTNAMGWYRQAPGKERELVAAISRSGGRTYYADSVKGRFTISRDNAKNTVYLQMNSLKPEDTAVYYCAKQLYSPYKQRGYRLSPYEYWGQGTQVTVSS | low polyreactivity
3 | QVQLVESGGGLVQAGGSLRLSCAASGRIFGVYTMGWSRQAPGKERELVAAITSGGNTNYADSVKGRFTISRDNAKNNVYLQMNSLKPEDTAVYYCAARSVRNFYYPGHNYRGQGTQVTVSS | low polyreactivity
4 | QVQLVESGGGLVQAGGSLRISCAASGRIFGANAMGWYRQAPAKERELVAAITSSGGNTYYADSVKGRFTISRDNAKNTVYLQMNCLKPEDTAVYYWSARSRWVSYNYWGQGTQVTVSS | high polyreactivity
5 | QVQLVESGGCLVQAGGSRRLSWAASGRIFDTYTMGWYRQAPGKERELVAAITSGGSTYYADSVKGRFTISRDNAMNTVYLQMNSLKPEDTAVYYCAARYRSIIRYYYWGQGTQVTVSS | high polyreactivity
6 | QVQLVESGGGLVQAGGSLRLSCAASGRIFYPYSMGWYRQAPGKERELVAAIRRSGVDTYYADSVKGRFTISRDNAKNTVYLQMNSLKPEDTAVYYCAADPYWFFPHYDSWGQGTQVTVSS | low polyreactivity
7 | QVQLVESGGGLVQAGGSLRLSCAASGSTFGLYAMGWYRQAPGKERELVAAITRGGVTDFADCVKGRFTFSRDNAKYTVYLQMNSLKPEDTAVYYCAAQYKRYHGLFGFWGQGTQVTVSS | high polyreactivity
8 | QVHLVESGGGLVQAGGSLRLSCSASGRTFPYNAMGWYRQSPGKERELVAAISWRGGSTYYADSVKGRFTISRDNAKNTVYLQMNSLKPEDTAVYYCNALYPVSYDHRGDYWGQGTQVTVSS | high polyreactivity
9 | QVQLVESGGGLVQAGGSLRLSCAASGRIFYSYGMGWYRQAPGKERELVATISIGGSTNYADSVKGRFTISRDNAKNTVYLQMNSLKPEDTAVYYCAARGGTLYSTRSYGYWGQGTQVTVSS | high polyreactivity
10 | QVQLVESGGGLVQAGGSLRLSCAASGRTFWKYAMGWYRHAPGKERELVAAITDDDSTDYADSVKGRFTISRDNAKNTVYLQMNSLKPEDTAVYYCNADSSRYYRALEYWGQGTQVTVSS | low polyreactivity
11 | QVQLVESGGGLVQAGGSLRLSCAASGSIFSPYAMGWYRQAPGKERELVAAISDRGGSTYYADSVKVRFTISRDNAKNTVYLQMNSLKPEDTAVYYCAARVGYAFRYYYWGQGTQVTVSS | high polyreactivity
12 | QLQHVESGGGLVQAGGSLRLSCAASGRIFGVNAQGWYRQAPGKERELVAAITSGGSTYYADSVKGRFTISRDNAKNTVYLQMKSLKPEDTAVYYGAARYYYLLWYTLPTKYDYWGQGTQVTVSS | high polyreactivity
13 | QVQLVESGGGLVQAGGSLRLSCAASGFTFYRNAMGWYRQAPGKERELVAAITRAGSTYYADSVKGRFTISRDNAKNTVYLQMNSLKPEDTAVYYCFDMSNRYAVRYDYWGQGTQVSVSS | high polyreactivity
14 | QVQLVESGGGLVQAGGSLRLSCAASGSTFDRNVMGWYRQAPGKERELVAAISRVSSTNYADSVKGRFTISRDNAKNTVYLQMNSLKPEDTAVYYCNARRESYYQRYRVDYWGQGTQVTVSS | low polyreactivity
15 | QVQLVESCGGLVQAGCSLRLSCAASGRIFSTNAMGWYRPAPGKERELVAAISSSGSRTYLADSVKGRFTISRDNAKNTVYLQMNSLKPEDTAVYFCNALRNYHHYEYDYWGQGTQVTVSS | high polyreactivity
16 | QVQLVESGGGLVQAGGSLRISCAASGSIFTFYAMGRYRQAPGKERELVATITWLGGSTYADSVKGRFTISRDNAKNTVYLQMNSLKPEDTAVYYCAKYLGRQHEKDLGGMNYWGQGTQVTVSS | high polyreactivity

Row | Sequence | polyreactivity (PSR sort gate)
17 | QVQLVESGGGLVQAGGSLRLSCAASGSTLFYAMGWYRQAPGKERELVAAISWSGGSTRYADSVKGRFTISRDNAKNTVYLQMNSLKPEDTAVYYCNTYTKHTGYYWKYDYWGQGTQVTVSS | low polyreactivity
18 | QVQLVESGGGLVQAGGSLRLSCAASGSIFLQNAMGWYRQAPGKERELVAAITNGGSTNYADSVKGRFTISRDNAKNTVYLQMNSLKPEDSAVYYCAAYPLYTGSYDRGGYWGQGTQVTVSS | low polyreactivity
19 | QVQLVESGGGLVQAGGSLRLSCAASGRTFNYYAMGWYRPAPGKERELVAAISGSGGRTYYADSVKGRFTISRDNAKNNVYLQMNSLKPVDTAVYYCNADVGKYPYAHTYWARRYYYWGQGTQVTVSS | high polyreactivity
20 | QVQLVESGGGLVQAGGSLRLSCAASGSTFLYNTMGWSRQAPGKERELVATITSRGDRTYYADSVKGRFPISRENAKNTVYLQMNSLKPEDTADYYCAALLYIRSVGYDYWGQGPQVTVSS | low polyreactivity
21 | QVQLVESGGGLVQAGGSLRLSCAASGSIFSYKAMGWYRQAPGKERELVAAISWSGGRTYYADSVKGRFTISRDNAKNTVYLQMNSLKPEDTAVYYCNAQYRLYSEFNYWGQGTQVTVSS | high polyreactivity
22 | QVQLVESGGGLVQAGGSLRLSCDASGRIFFWYAMGWYRQAPGKERELVAGITSAGSTNYADSVKGRFTISRDNAKNTVYLQMNSLKPEDTSVYFCNTVDSIPIGSGLYYYWGQGTQVTVSS | low polyreactivity
23 | QVQLVESGGGLVQAGGSLRLSCAACGFIFHFYAMGWYRQAPGKERELVASISAIGGSTYYADSVKGRFTISRDNAKNTVYLQMNSLKPEDTAVYYCATYSYRHRRYSRYDYWGQGTQVTVSS | high polyreactivity
24 | QVQLVESGGGLVQAGGSLRLSCAASGSIFGLYAMGWYRQAPGKERELVATITSGTNTYYADSVKGRFTISRDNAKNTVYLQMNSLKAEDTAVYYCAKSYIAWDGRTFEEMNYWGQGTLVTVSS | low polyreactivity
25 | QVQLVESGGGLVQAGGSLRLSCAASGSTLGVYAMGWYRQAPGKERELVAAITIGGSTNFADSVKGRFTISRDNAKNTVYLQLNSLKPEDTAVYYCNAYYYWEGHGYTLLSYYYWGQGTQVTVSS | low polyreactivity
26 | QVQLVESGGGLVQAGGSLRLSCAASGRTIGFNGMGWYRQAPGKERELVAAITRSGGNTYADSVKGRFTISRDNAKNTVYLQMNSLKPEDTAVYYCATTYVGVTLTGPGDYWGQGTQVTVSS | low polyreactivity
27 | QVQLVESGGGLVQAGGSLRLSCAASGFIFGDYAMGWYRQAPGKERELVADINWTGGSTYYADSVKGRFTISRDNAKNTVYLQMNSLKPEDTAVYYCAKDDYAFLITWVDYWGQGTQVTVSS | low polyreactivity
28 | QVQLVESGGGLVQAGGSLRLSCAASGSTYAIYAMGSYRQAPGKERELVASISGGSTNYADSVKGRFTISRDNAKNTVYLQMNSLKPEDTAVYYCAARGALHHWYRYDYWGQGTQVTVSS | low polyreactivity
29 | QVQLVESGGGLVQARGSLRLSCAASGFIVSPNVMGWYRQAPGKERELVAVISSTGSTYYADSVKGRFTISRDNAKNTVYLQMNSLKPEDTAVYHCNADYSWYGSSGRPGYDYWGQGTQVTVSS | low polyreactivity
30 | QVQLVESGGGLVQAGGSLRLSCAASGSIFNVNSMGWYRQAPGKERELVAAISSGGDTYYADSVKGRFTISRDNAKNTVYLQMNSLKPEDTAVYYCAKQSYTLYTLLYDYWGLGTQVTVSS | low polyreactivity
31 | QVQLVESGGGIVQAGGSLRLSSAASGITFGANAMGWYRQAPGKERELVADITWSGGDTYYADSVKGRFTSSRDNAKNSVYLQMNSLKPEDTAVYYCNALQPGLGSPLGEYDYWGQGTQVTVSS | low polyreactivity
